Laboratory results reported in paper PMC3578875.

Molecular target: human mu opioid receptor, N-terminally his-tagged (human) (UniProt P35372)
Experiment: SPR; Biacore-X, 25°C; OPRM captured on a Ni-NTA sensor chip (about 4000 RU), second cell as reference; running Buffer B (5 mM NaHPO4, 10% glycerol, 0.07% Fos-12, pH 7.5); EM-1 injected at 10, 30, 50, 60, 80, 100 nM, 5 µl/min, no regeneration; 1:1 interaction model

Chain of UniProt P35372 (P35372 whole entry): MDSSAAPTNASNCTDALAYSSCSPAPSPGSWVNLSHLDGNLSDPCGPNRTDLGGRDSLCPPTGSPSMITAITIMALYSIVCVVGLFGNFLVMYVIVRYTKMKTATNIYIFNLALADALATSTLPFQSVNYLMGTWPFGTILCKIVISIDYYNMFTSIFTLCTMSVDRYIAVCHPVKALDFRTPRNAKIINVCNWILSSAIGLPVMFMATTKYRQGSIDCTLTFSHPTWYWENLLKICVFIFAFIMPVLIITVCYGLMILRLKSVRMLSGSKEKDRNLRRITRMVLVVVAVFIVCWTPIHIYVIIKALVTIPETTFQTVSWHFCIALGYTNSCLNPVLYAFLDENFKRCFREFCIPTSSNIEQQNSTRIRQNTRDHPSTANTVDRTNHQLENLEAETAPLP

Substance: endomorphin-1 (peptide)
- Kd: 60.9 nM
